Laboratory results reported in patent publication US20190119331A1, “SYSTEM AND METHOD OF OPTOGENETICALLY CONTROLLING METABOLIC PATHWAYS FOR THE PRODUCTION OF CHEMICALS” (The Trustees of Princeton University, published 2019).

What was measured:
[1] = target: Gal4p-PSD fusion protein (yeast (Saccharomyces cerevisiae); Arabidopsis thaliana) (UniProt P04386)
[2] = target: Gal4p (yeast (Saccharomyces cerevisiae), UniProt P04386); assay: cell-based or functional assay

B1: Gal80p (other)
chain: MDYNKRSSVSTVPNAAPIRVGFVGLNAAKGWAIKTHYPAILQLSSQFQITALYSPKIETSIATIQRLKLSNATAFPTLESFASSSTIDMIVIAIQVASHYEVVMPLLEFSKNNPNLKYLFVEWALACSLDQAESIYKAAAERGVQTIISLQGRKSPYILRAKELISQGYIGDINSIEIAGNGGWYGYERPVKSPKYIYEIGNGVDLVTTTFGHTIDILQYMTSSYFSRINAMVFNNIPEQELIDERGNRLGQRVPKTVPDHLLFQGTLLNGNVPVSCSFKGGKPTKKFTKNLVIDIHGTKGDLKLEGDAGFAEISNLVLYYSGTRANDFPLANGQQAPLDPGYDAGKEIMEVYHLRNYNAIVGNIHRLYQSISDFHFNTKKIPELPSQFVMQGFDFEGFPTLMDALILHRLIESVYKSNMMGSTLNVSNISHYSL
GFP expression from PGAL1-GFP reporter (GFP/OD600), blue light against dark, strain YEZ102 (OptoINVRT3) [1]: 70 fold | GFP expression from PGAL1-GFP reporter (GFP/OD600), blue light (GAL80 expressed) against dark, strain YEZ100 (OptoINVRT1, gal4 gal80 deleted background) [2]: 45.7 fold decrease
